Changes are numbered by the printed parent chain.
B1: I09-SG3249: ADC: optimized clone I09 conjugated to the PBD payload SG3249 (conjugate)
VH: EVQLVESGGGLVKPGGSLRLSCAASGFTFSSYSMNWVRQAPGKGLEWVSSISGSSNYIYYADSVKGRFTISRDNAKNSLYLQMNSLRAEDTAVYYCARGGNYFVEYFQQWGQGTLVTVSS
VL: EIVLTQSPGTLSLSPGERATLSCRASQYISSNYLAWYQQKPGQAPRLLIYGASNRATGIPDRFSGSGSGTDFTLTISRLEPEDFAVYYCQQYSSDPITFGQGTKLEIK
B2: P10: lead optimized clone of 15B2GL; VH SEQ ID NO: 19, VL SEQ ID NO: 20 (antibody, V domains shown)
VH: B1 VH with S30R, S54Q, F103Y, Q109Y
VL: B1 VL with S93T, S94D, D95S
B3: M02: lead optimized clone of 15B2GL; VH SEQ ID NO: 15, VL SEQ ID NO: 16 (antibody, V domains shown)
VH: B1 VH with S54Q, F103Y, Q109Y
VL: B1 VL with Y33N
B4: I09: lead optimized clone of 15B2GL; VH SEQ ID NO: 11, VL SEQ ID NO: 12 (antibody, V domains shown)
VH: B1 VH
VL: B1 VL
B5: N22: lead optimized clone of 15B2GL; VH SEQ ID NO: 17, VL SEQ ID NO: 18 (antibody, V domains shown)
VH: B1 VH with Q109Y
VL: B1 VL with D95S
B6: L15: lead optimized clone of 15B2GL; VH SEQ ID NO: 13, VL SEQ ID NO: 14 (antibody, V domains shown)
VH: B1 VH with S54Q, Q109Y
VL: B1 VL with Y33N, S93A, S94D, D95S

Legend:
MM.1S cells = test: Cell killing in the presence of soluble BCMA (conditioned media from Ad293 cells expressing human BCMA); type: cell-based
Experimental: Killing of multiple myeloma and plasma cell leukemia cell lines by antibody-drug conjugates comprising 15B2GL, or affinity-optimized clones thereof, conjugated to SG3249 was evaluated in vitro using the protocol recommended in the CELLTITER-GLO® kit (Promega, Madison, Wis.). Killing of multiple myeloma and plasma cell leukemia cell lines by the free warhead SG3199 also was evaluated using the protocol recommended in the CELLTITER-GLO® kit (Promega, Madison, Wis.). Briefly, 5×10^3 cells in 80 μL RPMI+10% FBS were added to the inner wells of white-walled 96-well plates (Corning® Costar®, Fisher Scientific, Waltham, Mass.). The following BCMA-expressing cell lines were tested: NCI-H929, EJM, MM.1R. JJN3, OPM-2, MM.1S, U266.B1, and L363. BMCA-negative cell lines Raji and Jurkat also were tested. The antibody-drug conjugates were diluted to a 5× stock (2.5 μg/mL) in RPMI+10% FBS. Treatments were then serially diluted 1:3 in RPMI+10% FBS. 20 μL of this series was added to the cells in duplicate, resulting in a 12-point dose curve of antibody-drug conjugate ranging from 0.5 μg/mL at the highest concentration to 3×10^−[…] at the lowest. Isotype antibody-drug conjugate (IgG1-SG3249 and IgG1-mc-MMAF) and media-only controls also were included. Plates were incubated at 37° C., 5% CO2 for 96 hours. At the end of the incubation period, 100 μL of the Substrate Solution (Promega, Madison Wis.) was added to each well. Luminescence was measured using an EnVision™ Multilabel plate reader (Perkin Elmer, Waltham, Mass.). Data were analyzed and graphed using GraphPad Prism™ software (GraphPad Software, Inc., La Jolla, Calif.), and the half-maximal inhibitory concentration (IC50) was determined.
The ability of the 15B2GL-SG3249 ADC to kill multiple myeloma cells in vitro in the presence of soluble BCMA (sBCMA) as compared to the I09-5G3249 ADC was evaluated in MM.1S cells using the protocol described above, except that tested cell lines also were treated with BCMA-containing conditioned media collected from Ad293 cells expressing human BCMA (FIGS. 3A and 3B). 15B2GL-SG3249 ADC cell killing in the presence of sBCMA also was compared to ADCs comprising the anti-BCMA antibody J6M0, which is described in U.S. Pat. No. 9,273,141.

MM.1S xenograft [1] = test: MM.1S subcutaneous xenograft model (Example 9); type: in vivo, mouse; conditions: 3 mg/kg intravenous, observed for 85 days post tumor implantation
Source text: (§1) Subcutaneous xenograft mouse models of multiple myeloma and plasma cell leukemia were generated by implanting BCMA-expressing multiple myeloma or plasma cell leukemia cell lines (i.e., NCI-H929 and MM.1S) into female CB-17 SCID (C.B-17/IcrHsd-Prkdc-scid) mice using MATRIGEL™ (BD Biosciences, San Jose, Calif.). Once tumors reached approximately 200 mm^3 (NCI-H929 cells) or 180 mm^3 (MM.1S cells), mice were randomized based on tumor size and placed into dosing groups and treated with BCMA-targeting ADCs as described below.
Mice were treated with either a single intravenous dose of the ADCs IgG1-SG3400 or 15B2GL-SG3400 at 1 mg/kg or 3 mg/kg or dosed intravenously with J6M0-SG3400 at a dose of 1 mg/kg or 3 mg/kg. Control mice were left untreated.

JJN3 xenograft = test: JJN3 subcutaneous xenograft model; type: in vivo, mouse; conditions: single intravenous dose 1 mg/kg, observed for 104 days post tumor implantation
Source text: as §1, with “(i.e., NCI-H929, JJN-3, MM.1S,” for “(i.e., NCI-H929”, “and MM.1R)” for “and MM.1S)”, “(C.B-17/IcrHsd-Prkdc-scid) or athymic nude (Foxn1^nu)” for “(C.B-17/IcrHsd-Prkdc-scid)”, “approximately 180” for “approximately 200”, “(NCI-H929 cells), 190 mm^3 (JJN3 cells), 160” for “(NCI-H929 cells) or 180”, “(MM.1S cells), or 175 mm^3 (MM.1R” for “(MM.1S”
Mice were treated with either a single intravenous dose of 15B2GL-SG3249, 109-SG3249, and L15-SG3249 ADCs at 1 mg/kg, or dosed intravenously with J6M0-mc-MMAF ADC weekly at a dose of 1 mg/kg for 3 weeks. Control mice were left untreated.

MM.1S xenograft [2] = test: MM.1S subcutaneous xenograft model (Example 5); type: in vivo, mouse; conditions: single intravenous dose 1 mg/kg, observed for 99 days post tumor implantation
Source text: as §1, with “(i.e., NCI-H929, JJN-3, MM.1S,” for “(i.e., NCI-H929”, “and MM.1R)” for “and MM.1S)”, “(C.B-17/IcrHsd-Prkdc-scid) or athymic nude (Foxn1^nu)” for “(C.B-17/IcrHsd-Prkdc-scid)”, “approximately 180” for “approximately 200”, “(NCI-H929 cells), 190 mm^3 (JJN3 cells), 160” for “(NCI-H929 cells) or 180”, “(MM.1S cells), or 175 mm^3 (MM.1R” for “(MM.1S”
Mice were treated with either a single intravenous dose of 15B2GL-SG3249, 109-SG3249, L15-SG3249 ADCs at 1 mg/kg or dosed intravenously with J6M0-mc-MMAF twice weekly at a dose of 1 mg/kg for 4 weeks. Control mice were left untreated.

NCI-H929 xenograft = test: NCI-H929 subcutaneous xenograft model (Example 5); type: in vivo, mouse; conditions: single intravenous dose 0.3 mg/kg, observed for 99 days post tumor implantation
Source text: as §1, with “(i.e., NCI-H929, JJN-3, MM.1S,” for “(i.e., NCI-H929”, “and MM.1R)” for “and MM.1S)”, “(C.B-17/IcrHsd-Prkdc-scid) or athymic nude (Foxn1^nu)” for “(C.B-17/IcrHsd-Prkdc-scid)”, “approximately 180” for “approximately 200”, “(NCI-H929 cells), 190 mm^3 (JJN3 cells), 160” for “(NCI-H929 cells) or 180”, “(MM.1S cells), or 175 mm^3 (MM.1R” for “(MM.1S”
Mice were treated with either a single intravenous dose of the ADCs 15B2GL-SG3249, I09-5G3249, L15-SG3249 at 0.3 mg/kg or dosed intravenously with J6M0-mc-MMAF weekly at a dose of 0.3 mg/kg for 2 weeks. Control mice were left untreated.

monomeric human sBCMA = molecular target: T1, monomeric human sBCMA (Homo sapiens, UniProt Q02223); test: Kinetics/affinity measurement by SPR (BioRad ProteOn XPR36), antibody captured by anti-Fc, sBCMA flowed over; type: binding; conditions: for Koff / Kon: sBCMA 100-6.25 nM; for Kd: unit inferred
T1 construct: is comprised of the entire extracellular domain of the molecule; purchased GenScript
T1 sequence (Q02223 1-54 limits assumed): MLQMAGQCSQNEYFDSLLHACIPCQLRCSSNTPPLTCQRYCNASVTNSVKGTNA
Experimental: The binding of 15B2GL monoclonal antibody and optimized clones I09, L15, P10, N22, and M02 (described in Example 1) was assessed using monomeric human sBCMA (GenScript, Piscataway, N.J.) using a ProteOn™ XPR36 instrument (Bio-Rad, Hercules, Calif.). The binding of J6M0 also was assessed for comparison. Standard amine coupling was used to immobilize 25 μg/ml anti-Fc polyclonal antibody (Jackson ImmunoResearch, West Grove, Pa.) prepared in 10 mM sodium acetate buffer (pH 4.5) to the surface of a ProteOn™ GLC biosensor chip (Bio-Rad, Hercules, Calif.) pre-activated with 20 mM EDAC (1-ethyl-3-(3-dimethylaminopropyl)carbodiimide hydrochloride) and 5 mM Sulfo-NHS (N-hydroxysulfosuccinimide) at a density of ˜200-600 resonance units (RU). 15B2GL, I09, L15, P10, N22, M02, and J6M0 were subsequently injected at a concentration of 1 μg/ml for capture by the immobilized anti-Fc polyclonal antibody. The sensorgram was recorded by flowing two-fold serial dilutions of sBCMA prepared in PBS (pH 7.4) with 0.005% (v/v) Tween®-20, ranging from 100-6.25 nM, over the captured surface for 150 seconds at 75 μL/minute with dissociation time of 600 seconds. ProteOn™ data analysis software was used to analyze the data.

Molecule	Koff (monomeric human sBCMA)	Kon (monomeric human sBCMA)	Kd (monomeric human sBCMA) [nM]	also measured
J6M0-SG3249: ADC comprising the anti-BCMA antibody J6M0 and SG3249	–	–	–	IC50 (MM.1S cells; sBCMA 0 ng/mL): 4.816 ng/mL; IC50 (MM.1S cells; sBCMA 75 ng/mL): 12.83 ng/mL; Fold loss of potency (MM.1S cells; sBCMA 75 ng/mL vs 0): 2.66; IC50 (MM.1S cells; sBCMA 270 ng/mL): 32.26 ng/mL; Fold loss of potency (MM.1S cells; sBCMA 270 ng/mL vs 0): 6.70; IC50 (MM.1S cells; sBCMA 720 ng/mL): 92.92 ng/mL; Fold loss of potency (MM.1S cells; sBCMA 720 ng/mL vs 0): 19.29
J6M0-SG3400: BCMA-targeting ADC of J6M0 with SG3400	–	–	–	tumor regrowth (MM.1S xenograft [1]): no evidence of tumor regrowth
B1	–	–	–	tumor regrowth (JJN3 xenograft): no evidence of tumor regrowth; tumor regrowth (MM.1S xenograft [2]): no evidence of tumor regrowth; tumor regrowth (NCI-H929 xenograft): no evidence of tumor regrowth
B2	3.73E−03	7.01E+05	5.32	–
B3	4.97E−03	4.99E+05	9.95	–
B4	5.99E−03	6.09E+05	9.82	–
B5	8.73E−03	5.36E+05	16.3	–
B6	3.86E−03	8.54E+05	4.51	–
